In publication PMC3526308:

T1: LtmA (Ms6479) (Mycobacterium smegmatis mc2155, UniProt A0R6A5 1-189)
T1 sequence: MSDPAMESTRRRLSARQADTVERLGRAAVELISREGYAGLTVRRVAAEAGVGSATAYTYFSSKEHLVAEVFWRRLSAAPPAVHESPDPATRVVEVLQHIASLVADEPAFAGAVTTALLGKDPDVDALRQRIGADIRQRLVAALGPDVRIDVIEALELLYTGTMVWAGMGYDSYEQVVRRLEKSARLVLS

B1: Ms6484p5 (dsDNA)
DNA 1: CAAACTATAGCAGCTCTCCACCTGACACGGTTTCGGAG
DNA 2: CTCCGAAACCGTGTCAGGTGGAGAGCTGCTATAGTTTG
B2: Ms6484p4 (dsDNA)
DNA 1: CTCCGAAACCTCTGGACATGTGTCCAGACTATAGTTTG
DNA 2: CAAACTATAGTCTGGACACATGTCCAGAGGTTTCGGAG

Biological target: T1, LtmA (Ms6479)
Test: EMSA

Binder | binding result
B1 | no binding
B2 | binds
